In patent US20160159906A1 (Genentech, published 2016):

Legend:
human CD79b [1] = target: T1, human CD79b (human, UniProt P40259 29-229); experiment: FACS on BJAB cells (FIG. 3C)
T1 construct: Endogenous CD79b on BJAB / BJAB-luciferase cells (FACS) and on human B cells (killing assays); also called huCD79b; Igβ
T1 sequence: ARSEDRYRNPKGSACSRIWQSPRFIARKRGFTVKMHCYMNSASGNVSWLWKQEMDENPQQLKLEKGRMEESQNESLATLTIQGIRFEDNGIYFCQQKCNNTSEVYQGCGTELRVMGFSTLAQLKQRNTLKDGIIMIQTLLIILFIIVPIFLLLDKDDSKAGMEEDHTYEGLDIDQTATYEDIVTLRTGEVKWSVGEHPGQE
Method: (§1) BJAB cells were incubated with anti-CD79b antibody (bivalent, dual arm antibody) or anti-CD79b/CD3 TDB antibody as indicated for 30 minutes on ice. At the end of the incubation, cells were washed with ice cold FACS buffer (lx PBS, 2% BSA, 2mM EDTA), followed by incubation with PE-labeled mouse anti-human IgG antibody (BD bioscience #555787). Flow cytometry analysis was done on a BD LSR analyzer. Antibody binding was expressed as Mean Fluorescence Intensity (MFI) of PE fluorophore. A: The bivalent binding affinity of anti-CD79b clone 2F2 comparing to monovalent binding affinity of anti-CD79b clones 2F2, SN8v28, and SN8new (as K&H TDBs); B: bivalent binding affinity of anti-CD79b clones CD79b.F6 and CD79b.A7 comparing to monovalent binding of anti-CD79b clones CD79b.F6, CD79b.A7, and SN8v28 (as bisfab or K&H TDBs); C: bivalent binding affinity of anti-CD79b clone CD79b.A7.v14 comparing to monovalent binding of anti-CD79b clone CD79b.A7.v14 (as K&H TDBs).
Binding affinity of the humanized CD79.A7.v14 of monovalent and bivalent was tested as described above.

human CD79b [2] = target: T1, human CD79b; experiment: FACS on BJAB-luciferase cells, bivalent binding, PE anti-human IgG
Method: At the end of the incubation, cells were washed with ice cold FACS buffer (1× PBS, 2% BSA, 2 mM EDTA), followed by incubation with PE-labeled mouse anti-human IgG antibody (BD bioscience #555787). Flow cytometry analysis was done on a BD LSR analyzer. Bivalent binding was expressed as Mean Fluorescence Intensity (MFI) of PE fluorophore.

[3] = target: T2, human CD79b fused with an Fc domain at the C-terminus (printed at paragraph 314 as Human CD79a fused with an Fc … (human, UniProt P40259 29-159)); experiment: Biacore T100 SPR, bivalent IgG over CD79b-Fc immobilized at low density; apparent affinity
T2 construct: also called CD79b immobilized at a low density; Fc-tagged ECD of human CD79b; not shown: Fc domain at the C-terminus
T2 sequence: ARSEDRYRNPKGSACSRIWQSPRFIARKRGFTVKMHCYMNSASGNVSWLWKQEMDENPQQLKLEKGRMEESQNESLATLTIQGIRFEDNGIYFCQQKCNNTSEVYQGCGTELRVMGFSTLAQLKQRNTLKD
Method: The binding affinity of the antibodies in this section was determined by BIAcore™ T100. Briefly, BIAcore™ research grade CM5 chips were activated with 1-ethyl-3-(3-dimethylaminopropyl) carbodiimide (EDC) and N-hydroxysuccinimide (NHS) reagents according to the supplier's instructions. Human […] fused with an Fc domain at the C-terminus was coupled to the chips. To achieve more monovalent binding events, low density of ˜12 response units (RU) was immobilized in each flow cell. For measuring the apparent affinity of the antibodies, ˜370 RU of the antigen was immobilized. Unreacted coupling groups were blocked with 1M ethanolamine. For kinetics measurements, three-fold serial dilutions of antibody was injected in PBS-T buffer (0.05% surfactant P20 in PBS) at 25° C. with a flow rate of 30 μl/min. 10 mM glycine, pH 1.7 was used as regeneration buffer at 30 ul/min flow rate for 1 minute. Association rates (kₒₙ) and dissociation rates (koff) were calculated using a 1:1 Langmuir binding model (BIAcore™ T100 Evaluation Software version 2.0). The equilibrium dissociation constant (Kd) was calculated as the ratio koff/kₒₙ.
Thus additional humanized variants were made to evaluate the contribution of mouse framework vernier positions towards binding. Six additional light chains (VL1: CDRs graft+(Y36L), VL2: CDRs graft+(Y36L+L46C), VL3: CDRs graft+(I2V+Y36L+L46C), VL4: CDRs graft+(Y36L+L46S), VL5: CDRs graft+(I2V+Y36L+L46S), VL6: CDRs graft+(L46S)) and seven additional heavy chains (VH1a: CDRs graft+(A93S), VH1b: CDRs graft+(R71V+A93S), VH1c: CDRs graft+(V67A+I69L+R71V+A93S), VH1d:CDRs graft+(V67A+I69L+R71V+T73K+A93S), VH1e: CDRs graft+(V67A+R71V+A93S), VH1f: CDRs graft+(I69L+R71V+A93S), and VH1g: CDRs graft+(V67A+I69L)) were constructed and combined to generate the variants in Table 2. Based on the affinities of these variants, Y36L and L46C in the light chain appear to be key mouse vernier residues. […] In the heavy chain, V67A, I69L, R71V and A93S also contributed to CD79b binding; however R71V appeared to be the key mouse vernier residues based on this mutational analysis.

[4] = target: T3, CD79b.A7, dual arm, bivalent anti-CD79b antibody; experiment: FACS on BJAB cells, peptide competition (data not shown)
T3 construct: Mouse hybridoma clone; also called CD79.A7; muCD79b.A7

human CD79b [5] = target: T1, human CD79b; experiment: cell-based or functional assay
human CD79b [6] = target: T1, human CD79b; experiment: FACS on BJAB cells (FIG. 3B); bispecific bisfab, monovalent for CD79b
Method: as §1
(§2) The monovalent and bivalent anti-CD79b antibody binding affinity was also evaluated in order to better understand the contribution, if any, to B cell killing activity. Binding affinity of dual arm, bivalent anti-CD79b antibodies and bispecific anti-CD79b/ CD3 antibodies using BJAB cells were also analyzed. […]

human CD79b [7] = target: T1, human CD79b; experiment: FACS on BJAB cells, PE-labeled mouse anti-human IgG detection, MFI [panel A]
Method: as §1, §2

T3 sequence (VL, as listed by the source): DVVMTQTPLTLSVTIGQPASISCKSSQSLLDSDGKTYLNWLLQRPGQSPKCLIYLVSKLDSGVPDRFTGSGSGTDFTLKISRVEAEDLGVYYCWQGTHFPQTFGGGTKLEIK

B1: CD79b.A7.v14 (antibody, V domains shown)
VH: EVQLVQSGAEVKKPGASVKVSCKASGYTFTTYWMNWVRQAPGQGLEWIGMIDPSDSETHYNQMFKDRATLTVDTSTSTAYLELSSLRSEDTAVYYCSRSLAFWGQGTLVTVSS
VL: DIVMTQTPLSLPVTPGQPASISCKSSQSLLDSDGKTYLNWLLQKPGQSPQSLIYLVSKLDSGVPDRFSGSGSGTDFTLKISRVEAEDVGVYYCWQGTHFPQTFGQGTKVEIK
notes: VH1c + VL4; bivalent, dual arm IgG; also called huCD79b.A7.v14; CD79.A7.v14
EC50 (human CD79b [1]): 0.0468 µg/mL | EC50 (human CD79b [2]): 0.068 µg/mL | Kd [3]: 5 nM

B2: monovalent CD79.A7.v14 in the K&H TDB format CD79.A7.v14/40G5c (bispecific antibody, V domains shown)
VH 1: EVQLVQSGAEVKKPGASVKVSCKASGYTFTTYWMNWVRQAPGQGLEWIGMIDPSDSETHYNQMFKDRATLTVDTSTSTAYLELSSLRSEDTAVYYCSRSLAFWGQGTLVTVSS
VL 1: DIVMTQTPLSLPVTPGQPASISCKSSQSLLDSDGKTYLNWLLQKPGQSPQSLIYLVSKLDSGVPDRFSGSGSGTDFTLKISRVEAEDVGVYYCWQGTHFPQTFGQGTKVEIK
VH 2: EVQLVQSGAEVKKPGASVKVSCKASGYTFTNYYIHWVRQAPGQGLEWIGWIYPGDGNTKYNEKFKGRATLTADTSTSTAYLELSSLRSEDTAVYYCARDSYSNYYFDYWGQGTLVTVSS
VL 2: DIVMTQSPDSLAVSLGERATINCKSSQSLLNSRTRKNYLAWYQQKPGQPPKLLIYWASTRESGVPDRFSGSGSGTDFTLTISSLQAEDVAVYYCTQSFILRTFGQGTKVEIK
notes: also called CD79b.A7.v14/40G5c K&H
EC50 (human CD79b [1]): 0.22 µg/mL

B3: CD79b.A7.v18 (antibody, V domains shown)
VH: EVQLVQSGAEVKKPGASVKVSCKASGYTFTTYWMNWVRQAPGQGLEWIGMIDPSDSETHYNQMFKDRATLTVDKSTSTAYLELSSLRSEDTAVYYCSRSLAFWGQGTLVTVSS
VL: DIVMTQTPLSLPVTPGQPASISCKSSQSLLDSDGKTYLNWLLQKPGQSPQSLIYLVSKLDSGVPDRFSGSGSGTDFTLKISRVEAEDVGVYYCWQGTHFPQTFGQGTKVEIK
notes: VH1d + VL4; assessed as IgG
Kd [3]: 4 nM

B4: CD79b.A7.v15 (antibody, V domains shown)
VH: EVQLVQSGAEVKKPGASVKVSCKASGYTFTTYWMNWVRQAPGQGLEWIGMIDPSDSETHYNQMFKDRATLTVDTSTSTAYLELSSLRSEDTAVYYCSRSLAFWGQGTLVTVSS
VL: DVVMTQTPLSLPVTPGQPASISCKSSQSLLDSDGKTYLNWLLQKPGQSPQSLIYLVSKLDSGVPDRFSGSGSGTDFTLKISRVEAEDVGVYYCWQGTHFPQTFGQGTKVEIK
notes: VH1c + VL5; assessed as IgG
Kd [3]: 5 nM

B5: CD79b.A7.v20 (antibody, V domains shown)
VH: EVQLVQSGAEVKKPGASVKVSCKASGYTFTTYWMNWVRQAPGQGLEWIGMIDPSDSETHYNQMFKDRATITVDTSTSTAYLELSSLRSEDTAVYYCSRSLAFWGQGTLVTVSS
VL: DIVMTQTPLSLPVTPGQPASISCKSSQSLLDSDGKTYLNWLLQKPGQSPQSLIYLVSKLDSGVPDRFSGSGSGTDFTLKISRVEAEDVGVYYCWQGTHFPQTFGQGTKVEIK
notes: VH1e + VL4; assessed as IgG
Kd [3]: 8 nM

B6: CD79b.A7.v19 (antibody, V domains shown)
VH: EVQLVQSGAEVKKPGASVKVSCKASGYTFTTYWMNWVRQAPGQGLEWIGMIDPSDSETHYNQMFKDRATLTVDKSTSTAYLELSSLRSEDTAVYYCSRSLAFWGQGTLVTVSS
VL: DVVMTQTPLSLPVTPGQPASISCKSSQSLLDSDGKTYLNWLLQKPGQSPQSLIYLVSKLDSGVPDRFSGSGSGTDFTLKISRVEAEDVGVYYCWQGTHFPQTFGQGTKVEIK
notes: VH1d + VL5; assessed as IgG
Kd [3]: 4 nM

B7: CD79b.A7.v21 (antibody, V domains shown)
VH: EVQLVQSGAEVKKPGASVKVSCKASGYTFTTYWMNWVRQAPGQGLEWIGMIDPSDSETHYNQMFKDRVTLTVDTSTSTAYLELSSLRSEDTAVYYCSRSLAFWGQGTLVTVSS
VL: DIVMTQTPLSLPVTPGQPASISCKSSQSLLDSDGKTYLNWLLQKPGQSPQSLIYLVSKLDSGVPDRFSGSGSGTDFTLKISRVEAEDVGVYYCWQGTHFPQTFGQGTKVEIK
notes: VH1f + VL4; assessed as IgG
Kd [3]: 8 nM

B8: Peptide 1, 21-amino acid peptide ARSEDRYRNPKGSACSRIWQS that corresponds to the NH2 termini of huCD79b (peptide)
peptide: ARSEDRYRNPKGSACSRIWQS
binding result [4]: binds

B9: bispecific bisfab anti-CD79b/CD3 (CD79b.A7/UCHT1.v9) (bispecific antibody, V domains shown)
VH 1: QVQLQQPGVELVRPGASVKLSCKASGYTFTTYWMNWVRQRPGQGLDWIGMIDPSDSETHYNQMFKDKATLTVDKSSSTAYIQLNSLTSEDSAVYYCSRSLAFWGQGTLVTVSA
VL 1: not shown
VH 2: EVQLVESGGGLVQPGGSLRLSCAASGYSFTGYTMNWVRQAPGKDLEWVALINPYKGVSTYNQKFKDRFTISVDKSKNTAYLQMNSLRAEDTAVYYCARSGYYGDSDWYFDVWGQGTLVTVSS
VL 2: DIQMTQSPSSLSASVGDRVTITCRASQDIRNYLNWYQQKPGKAPKLLIYYTSRLESGVPSRFSGSGSGTDYTLTISSLQPEDFATYYCQQGNTLPWTFGQGTKLELK
notes: Bisfab format; constant parts and the link between the two Fabs are not described; also called CD79b.A7/UHT1.v9
endogenous B cell killing EC50 (human CD79b [5]): 12 ng/mL | EC50 (human CD79b [6]): 1.4 µg/mL

B10: SN8.new/UCHT1.v9 bispecific K&H antibody (bispecific antibody, V domains shown)
VH 1: EVQLVESGGGLVQPGGSLRLSCAASGYTFSSYWIEWVRQAPGKGLEWVGEILPGGGDTNYNEIFKGRFTISADTSKNTAYLQMNSLRAEDTAVYYCTRRVPIRLDYWGQGTLVTVSS
VL 1: DIQMTQSPSSLSASVGDRVTITCKASQSVDYDGDSFLNWYQQKPGKAPKLLIYAARKLGRGVPSRFSGSGSGTDFTLTISSLQPEDFATYYCQQSNEDPLTFGQGTKVEIK
VH 2: EVQLVESGGGLVQPGGSLRLSCAASGYSFTGYTMNWVRQAPGKDLEWVALINPYKGVSTYNQKFKDRFTISVDKSKNTAYLQMNSLRAEDTAVYYCARSGYYGDSDWYFDVWGQGTLVTVSS
VL 2: DIQMTQSPSSLSASVGDRVTITCRASQDIRNYLNWYQQKPGKAPKLLIYYTSRLESGVPSRFSGSGSGTDYTLTISSLQPEDFATYYCQQGNTLPWTFGQGTKLELK
EC50 (read off the curve) (human CD79b [7]): ~1 µg/mL

B11: chCD79b.A7 (antibody, V domains shown)
VH: QVQLQQPGVELVRPGASVKLSCKASGYTFTTYWMNWVRQRPGQGLDWIGMIDPSDSETHYNQMFKDKATLTVDKSSSTAYIQLNSLTSEDSAVYYCSRSLAFWGQGTLVTVSA
VL: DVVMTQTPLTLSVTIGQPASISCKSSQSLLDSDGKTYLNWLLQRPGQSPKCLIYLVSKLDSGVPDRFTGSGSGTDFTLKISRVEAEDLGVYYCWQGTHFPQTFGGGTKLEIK
notes: Chimeric form of CD79b.A7 by its prefix ch
EC50 (human CD79b [2]): 0.124 µg/mL
